Laboratory results published in patent US20080064079.

How the values were obtained:
[1] = molecular target: T1, Bz-Ala-Ala-Tyr-Arg-His-Ala-Gly
T1 chain: AAYRHAG

[2] = molecular target: N-alpha-benzoylated peptides of SEQ ID NOs: 3-19

B1: trypsin variant Tn K60E, E151H, N143H, D189K (protein)
chain: IVGGYTCQENSVPYQVSLNSGYHFCGGSLINDQWVVSAAHCYESRIQVRLGEHNINVLEGNEQFVNAAKIIKHPNFDRKTLNNDIMLIKLSSPVKLNARVATVALPSSCAPAGTQCLISGWGHTLSSGVNHPDLLQCLDAPLLPQADCEASYPGKITDNMVCVGFLEGGKKSCQGDSGGPVVCNGELQGIVSWGYGCALPDNPGVYTKVCNYVDWIQDTIAAN
- yield of the transamidation product with Arg-His-Ala-Lys(6-CF)-OH (HPLC) [1]: obtained in a yield of >99%
- rate of reaction (initial rate of peptide consumption, HPLC) [2]: has a strong preference for a cleavage site comprising L, F or Y in position P1, R or K in position P1′ and His in position P2′
